Data from paper PMC3541234, “Functional Characterization of a Chimeric Soluble Fas Ligand Polymer with In Vivo Anti-Tumor Activity” (PLoS ONE, 2013).
Several values for one entry are separate records, joined by “and”; a condition that tells them apart may be missing. Equal values may be shown once.

B1: cleaved FasL (cFasL), spontaneously cleaved membrane FasL (ligand, human, UniProt P48023 127-281, looked up)
chain: LEKQIGHPSPPPEKKELRKVAHLTGKSNSRSMPLEWEDTYGIVLLSGVKYKKGGLVINETGLYFVYSKVYFRGQSCNNLPLSHKVYMRNSKYPQDLVMMEGKMMSYCTTGQMWARSSYLGAVFNLTSADHLYVNVSELSLVNFEESQTFFGLYKL
notes: human FasL, soluble product of the metalloprotease cleavage between amino acids 126 and 127; the C-terminal end 281 is the one printed for the extracellular domain; Homotrimer by gel filtration; also called sFasL; metalloprotease-cleaved FasL; source: COS cells transfected with wild-type FasL, supernatant (spontaneously cleaved by a metalloprotease); for SPR in serum-free medium, concentrated 100 …
B2: pFasL (polymeric soluble FasL; IgFasL chimera: Ig module of gp190 fused to the extracellular domain of hFasL) (ligand, UniProt P42702 246-328, looked up)
chain: WIPDSQTKVFPQDKVILVGSDITFCCVSQEKVLSALIGHTNCPLIHLDGENVAIKIRNISVSASSGTNVVFTTEDNIFGTVIFQKELAELRESTSQMHTASSLEKQIGHPSPPPEKKELRKVAHLTGKSNSRSMPLEWEDTYGIVLLSGVKYKKGGLVINETGLYFVYSKVYFRGQSCNNLPLSHKVYMRNSKYPQDLVMMEGKMMSYCTTGQMWARSSYLGAVFNLTSADHLYVNVSELSLVNFEESQTFFGLYKL
notes: Ig-like (Ig) module of the LIF receptor gp190, amino acids 246 to 328; extracellular domain of human FasL (hFasL), amino acids 108 to 281; source: COS cells, transiently transfected (pED4 vector), supernatant; for SPR in Opti-MEM, concentrated 100 times, dialysed against PBS; copies: 12
B3: D1IgD2FasL (D1IgD2 modules of gp190 fused to the extracellular domain of hFasL) (ligand, UniProt P42702 49-542, looked up)
chain: APHDLKCVTNNLQVWNCSWKAPSGTGRGTDYEVCIENRSRSCYQLEKTSIKIPALSHGDYEITINSLHDFGSSTSKFTLNEQNVSLIPDTPEILNLSADFSTSTLYLKWNDRGSVFPHRSNVIWEIKVLRKESMELVKLVTHNTTLNGKDTLHHWSWASDMPLECAIHFVEIRCYIDNLHFSGLEEWSDWSPVKNISWIPDSQTKVFPQDKVILVGSDITFCCVSQEKVLSALIGHTNCPLIHLDGENVAIKIRNISVSASSGTNVVFTTEDNIFGTVIFAGYPPDTPQQLNCETHDLKEIICSWNPGRVTALVGPRATSYTLVESFSGKYVRLKRAEAPTNESYQLLFQMLPNQEIYNFTLNAHNPLGRSQSTILVNITEKVYPHTPTSFKVKDINSTAVKLSWHLPGNFAKINFLCEIEIKKSNSVQEQRNVTIKGVENSSYLVALDKLNPYTLYTFRIRCSTETFWKWSKWSNKKQHLTTEASPSKGPDTWQKELAELRESTSQMHTASSLEKQIGHPSPPPEKKELRKVAHLTGKSNSRSMPLEWEDTYGIVLLSGVKYKKGGLVINETGLYFVYSKVYFRGQSCNNLPLSHKVYMRNSKYPQDLVMMEGKMMSYCTTGQMWARSSYLGAVFNLTSADHLYVNVSELSLVNFEESQTFFGLYKL
notes: extracellular domain of human FasL (hFasL), amino acids 108 to 281; source: COS cells, transiently transfected (pED4 vector), supernatant; for SPR in Opti-MEM, concentrated 100 times, dialysed against PBS
B4: Recombinant Fas-Fc (Fc fusion, UniProt P25445 26-173, looked up)
chain: QVTDINSKGLELRKTVTTVETQNLEGLHHDGQFCHKPCPPGERKARDCTVNGDEPDCVPCQEGKEYTDKAHFSSKCRRCRLCDEGHGLEVEINCTRTQNTKCRCKPNFFCNSTVCEHCDPCTKCEHGIIKECTLTSNTKCKEEGSRSN
notes: Fas (CD95/APO-1) part of a bought recombinant Fas-Fc; The reagents section also names a laboratory-made Fas-Fc purified on protein A; the SPR methods name the R&D Systems protein; source: bought: R&D Systems
B5: D2FasL (D2 module of gp190 fused to the extracellular domain of hFasL) (ligand, UniProt P42702 329-542, looked up)
chain: AGYPPDTPQQLNCETHDLKEIICSWNPGRVTALVGPRATSYTLVESFSGKYVRLKRAEAPTNESYQLLFQMLPNQEIYNFTLNAHNPLGRSQSTILVNITEKVYPHTPTSFKVKDINSTAVKLSWHLPGNFAKINFLCEIEIKKSNSVQEQRNVTIKGVENSSYLVALDKLNPYTLYTFRIRCSTETFWKWSKWSNKKQHLTTEASPSKGPDTWQKELAELRESTSQMHTASSLEKQIGHPSPPPEKKELRKVAHLTGKSNSRSMPLEWEDTYGIVLLSGVKYKKGGLVINETGLYFVYSKVYFRGQSCNNLPLSHKVYMRNSKYPQDLVMMEGKMMSYCTTGQMWARSSYLGAVFNLTSADHLYVNVSELSLVNFEESQTFFGLYKL
notes: as for B3

Key:
[1] = biological target: the molecule itself; test: SEC; gel filtration on Sephacryl S-200-HR and S-300-HR columns; concentrated COS supernatants, eluted in PBS at 0.3 ml/min; FasL in the fractions found by ELISA; size of the oligomer of the FasL construct
[2] = biological target: B4; test: SPR; BIAcore 3000; Fas-Fc covalently coupled to a CM5 flow cell (2,000 RU); FasL constructs as concentrated, dialysed COS supernatants flowed over (0.2-100 nM IgFasL, 0.2-44 nM cFasL, 0.2-37.5 nM D2FasL, 0.25-8 nM D1IgD2FasL) in Hepes-buffered saline, 30 ul/min; 5 min association, 11 min dissociation; BIAeval 4.1; details: one partner purified
[3] = biological target: B1; test: as above; details: one partner purified

Kd [2] [nM]	koff [2] [s⁻¹]	kon [2] [M⁻¹ s⁻¹]	Kd [3] [nM]	koff [3] [s⁻¹]	kon [3] [M⁻¹ s⁻¹]	Binder	stoichiometry N [1]
						B1	3
11.6	0.00041	25000				B2	12 and 6
25.6	0.0033	130000				B3	6
			69.4	0.0059	84000	B4	
38.5	0.006	160000				B5	6
